Reference: US5602230A, “Peptide inhibitors of selectin binding” (Centocor, Inc., priority 1995, dated 1997)
Where no end group is shown, it is not given here. The star is where a group is joined. Nif = α,α,α-trifluoro-m-toluidino-nicotinyl, O=C(c1cccnc1Nc1cccc(C(F)(F)F)c1)*

Target: T1, purified human P-selectin (Homo sapiens, UniProt P16109)
T1 construct: P-selectin is isolated from human platelet lysates; from tissue; host or cells: outdated human platelet packs (platelet lysates)
T1 sequence (P16109 42-830): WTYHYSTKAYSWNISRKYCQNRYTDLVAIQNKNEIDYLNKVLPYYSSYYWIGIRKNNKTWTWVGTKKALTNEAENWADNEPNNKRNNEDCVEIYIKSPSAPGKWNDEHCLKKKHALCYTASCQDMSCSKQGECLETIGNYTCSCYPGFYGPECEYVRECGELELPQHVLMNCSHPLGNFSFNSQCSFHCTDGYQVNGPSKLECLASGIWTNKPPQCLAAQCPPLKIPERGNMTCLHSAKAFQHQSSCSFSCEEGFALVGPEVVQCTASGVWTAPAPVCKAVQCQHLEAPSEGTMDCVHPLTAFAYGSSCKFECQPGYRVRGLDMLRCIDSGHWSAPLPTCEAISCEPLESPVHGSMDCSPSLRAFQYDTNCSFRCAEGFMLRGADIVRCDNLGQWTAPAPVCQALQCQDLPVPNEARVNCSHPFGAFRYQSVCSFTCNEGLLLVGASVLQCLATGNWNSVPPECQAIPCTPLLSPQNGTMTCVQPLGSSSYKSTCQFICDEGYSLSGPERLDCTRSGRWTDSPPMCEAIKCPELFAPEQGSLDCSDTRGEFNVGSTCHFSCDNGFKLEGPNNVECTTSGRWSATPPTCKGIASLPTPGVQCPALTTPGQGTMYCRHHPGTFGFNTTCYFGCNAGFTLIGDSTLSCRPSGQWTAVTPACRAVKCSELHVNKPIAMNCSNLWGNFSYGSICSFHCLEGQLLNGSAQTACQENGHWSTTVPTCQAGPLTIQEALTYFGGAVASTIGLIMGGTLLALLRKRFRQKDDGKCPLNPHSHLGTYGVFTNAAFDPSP
Test: Neutrophil adhesion to purified P-selectin immobilized on plastic wells
Assay type: cell-based
Conditions: result in words
Excerpt: Peptides can be screened for their ability to inhibit adhesion to cells, for example, neutrophil adhesion to purified P-selectin immobilized on plastic wells, using the assay described by Geng, et al., Nature 343, 757-760 (1990).
Human neutrophils are isolated from heparinized whole blood by density gradient centrifugation on Mono-Poly resolving media, Flow Laboratories. Neutrophil suspensions are greater than 98% pure and greater than 95% viable by trypan blue exclusion. For adhesion assays, neutrophils are suspended at a concentration of 2×10^6 cells/mL in Hanks' balanced salt solution containing 1.26 mM Ca^2+ and 0.81 mM Mg^2+ (HBSS, Gibco) with […] human serum albumin (HBSS/HSA). Adhesion assays are conducted in triplicate in 96-well microtiter plates, Corning, incubated at 4° C. overnight with 50 microliters of various protein solutions.
P-selectin is isolated from human platelet lysates by immunoaffinity chromatography on antibody S12-Sepharose™ and ion-exchange chromatography on a Mono-Q™ column (FLPC, Pharmacia Fine Chemicals), as follows. […]
Bound P-selectin is eluted from the S12 Affigel with 100 mL of 80% ethylene glycol, 1 mM MES pH 6.0, 0.01% Lubrol PX. Peak fractions with absorbance at 280 nm are pooled. […]

inhibit the adhesion of human neutrophils to purified human P-selectin (FIG. I) | Substance
inhibit the adhesion | SEQ ID NO: 10: peptide of Formula I shown in FIG. I; its sequence is not printed in the text (Nif-TDLVAIQ-NH2)
inhibit the adhesion | YTDLVAI-NH2 [SEQ ID NO: 4, Tyr-Thr-Asp-Leu-Val-Ala-Ile-NH2]
